Data published in patent US20090010911A1, “METHODS AND COMPOSITIONS FOR AFFECTING CYCLOPHILIN A REGULATION OF KINASES IN MODULATING CELLULAR ACTIVITIES” (IOWA STATE UNIVERSITY RESEARCH FOUNDATION, INC., priority 2007, published 2009).

T1: Itk kinase domain (Mus musculus, UniProt Q03526)
T1 construct: Purified 0.5 μM FLAG-tagged Itk kinase domain (Itk KD) immobilized on an anti-FLAG-resin; made in house; host or cells: Sf9 insect cells (baculovirus)
T1 sequence (Q03526 368-620 limits assumed): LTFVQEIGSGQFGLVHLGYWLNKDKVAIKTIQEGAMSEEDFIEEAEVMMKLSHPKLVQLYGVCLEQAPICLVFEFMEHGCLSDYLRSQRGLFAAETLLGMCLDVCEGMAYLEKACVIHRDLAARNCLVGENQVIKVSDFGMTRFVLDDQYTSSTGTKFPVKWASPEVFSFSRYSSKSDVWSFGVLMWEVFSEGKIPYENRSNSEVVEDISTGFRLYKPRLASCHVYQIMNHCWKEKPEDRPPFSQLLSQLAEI

B1: Itk SH2 domain: isolated exogenous SH2 domain of Itk, purified from bacteria (protein)
chain: EWYNKSISRDKAEKLLLDTGKEGAFMVRDSRTPGTYTVSVFTKAIISENPCIKHYHIKETNDSPKRYYVAEKYVFDSIPLLIQYHQYNGGGLVTRLRYPVCSWRQKA
B2: PLCγ1 SH2C domain: isolated carboxy-terminal SH2 domain of PLCγ1 (protein)
chain: QTNAHESKEWYHASLTRAQAEHMLMRVPRDGAFLVRKRNEPNSYAISFRAEGKIKHCRVQQEGQTVMLGNSEFDSLVDLISYYEKHPLYRKMKLRYPI

Target: T1, Itk kinase domain
Assay: Pull-down assay of SH2 domains with Itk kinase domain
Format: binding
Conditions: purified tagged proteins
Experimental: 3(a) Empty anti-FLAG resin (lane 1) or purified FLAG-tagged Itk kinase domain (Itk KD) immobilized on an anti-FLAG-resin (lanes 2 and 3) were incubated with purified myc-tagged control protein (lane 2) or myc-tagged Itk SH2 domain (lanes 1 and 3) in a pull-down assay. […] 3(b) Purified FLAG-tagged Itk KD (lane 1) was incubated with GST (lane 2) or GST-PLCγ1 C-terminal SH2 domain (GST-PLCγ1 SH2C) (lane 3) each immobilized on glutathione beads in a pull-down assay. […] One μM Itk 32 (lanes 1 and 3) or Itk 32 (R265K) (lanes 2 and 4), were incubated with 250 nM FLAG-tagged full-length Itk in an in vitro kinase assay. Lanes 1 and 2 are no enzyme control. […] One, 3, 5 and 10 μM PLCγ1 SH2C-Y783- (d) or PLCγ1 SH2C(R964A,R696A)-Y783- 3(e), were subjected to phosphorylation by 1.2 μM full-length FLAG-tagged Itk. Lanes 5 and 6 (containing 1 and 10 μM substrate, respectively) are no enzyme controls. Coomassie stain of the gels and anti-FLAG blots (bottom panels) show protein levels. (f & g) Interaction between the SH2 domain and Itk kinase domain is independent of the phosphorylation status of the kinase domain. […] Itk KD that is co-expressed with Lck but also pretreated with alkaline phosphatase is not phosphorylated (lane 3). […]

Row | Molecule | interaction with Itk kinase domain (pull-down)
1 | B1 | interacts directly
2 | B2 | interacts directly
